Patent publication US20230296569A1, “Substance quantification in complex mixtures” (ISA Pharmaceuticals B.V., priority 2021, published 2023)

Legend:
[1] = Peptide content (assay) of lyophilized drug product by UPLC-UV at 220 nm, conventional method (peptide as reference standard); type: physicochemical; details: conventional method (peptide as RS)
Method: The purity including individual related substances and the assay of a DP-5P (5 peptides, SEQ ID NOs: 1-5) and DP-7P (7 peptides, SEQ ID NOs: 6-12) mixture were determined by reversed phase rapid HPLC (UPLC) using a mobile phase gradient of acetonitrile and water and UV detection at λ=220 nm.
• Column: RP C18, e.g. Waters Acquity, BEH 130 PST (1.7 μm, 150×2.1 mm) • Sample matrix Eluent A : Eluent B=85:15 (v/v). • Sample concentration 100 μg/mL net peptide (of each drug substance mixture), duplicate • Injection volume: 5 μL • Column temperature: 65° C. • Sample temperature: 5° C. • Detection: UV (λ=220 nm) • Flow rate: 0.3 mL/min • Eluent A: 0.05%v/v TFA and 1%v/v Acetonitrile (ACN) in water • Eluent B: 0.05%v/v TFA in ACN
The relative retention times (RRTs) assigned to peptides and related substances both in a DP-5P (SEQ ID NO: 1-5) and DP-7P (SEQ ID NO: 6-12) mixture was calculated with reference to the retention time of the peptide eluting in the middle (FIG. 1 and FIG. 2). That retention time was used as reference as the main peak of this drug substance was detected approx. in the center of the chromatogram. The related substances were determined by area normalization. The individual related substances were reported≥0.10%a/a. The total related substances were calculated as the sum of all individual related substances equal to or greater than a disregard limit of 0.0500%a/a. The purity was calculated as the difference between total related substances and 100%.
The assay of each of the peptides was calculated against a reference standard solution containing either five peptides (DP-5P) or seven peptides (DP-7P) and was expressed in percent and in mg net peptide/vial. For this reference method, the absorption ratio between the reference substance and the analyte is 1, because the reference substance is the analyte itself.
At T=0 months (TOM) the peptide content was measured using the conventional method of Example 2. From T=48 months (T48M) onwards the peptide content was measured with the conventional method of Example 2 and the method according to the invention of Example 3.

[2] = Peptide content (assay) of lyophilized drug product by UPLC-UV at 220 nm, method according to the invention (USP reserpine reference standard, RRF); type: physicochemical; details: method according to the invention (USP RS)
Text: The UPLC method similar to Example 1 was used for the quantification of analytes (i.e. the individual peptides) in mixtures DP-5P (SEQ ID NO: 1-5) and DP-7P (SEQ ID NO: 6-12) and for the determination of content uniformity of mixtures DP-5P and DP-7P (lyophilized product). The method is based on the use of an external reference standard. The relative response factor (ratio of molar extinction coefficients, RRF) against this external reference standard has been established for each peptide. The purity, individual related substances, and the assay of DP-5P and DP-7P were determined by reversed phase rapid HPLC (UPLC) using a mobile phase gradient of ACN/IPA and water and UV detection at λ220 nm.
The following lyophilized peptide compositions were used: DP-5P comprising peptides represented herein by SEQ ID NO: 1-5 admixed at equal net weights of 0.40 mg of each peptide per vial (total amount of protein per vial being 2.00 mg) and 0.56 mg TFA per vial; and DP-7P comprising peptides represented herein by SEQ ID NO: 6-12 admixed at equal net weights of 0.40 mg of each peptide per vial (total amount of protein per vial being 2.80 mg) and 0.96 mg TFA per vial. The following chemicals were used: Acetonitrile, (Biosolve, 01204102); UPLC water, (Type 1, milli-Q); trifluoroacetic acid, (Chem Lab, CLoo.2094.0001), 2-propanol, (UPLC/MS grade, Biosolve, 16264102); Reserpine, (USP, Sigma Aldrich, 1601000). The following equipment was used: QuanRecovery vials, (Waters, 186009186); UPLC pump equipped with a gradient system, autosampler, and UV detection (Waters Acquity or equivalent) and mixer volume 425 μL.
• Mobile phase A: 0.1% (v/v) TFA in water • Mobile phase B: 0.1% (v/v) TFA in 70/30 ACN/IPA • Diluent A: 0.05% (v/v) TFA in water • Diluent B: 0.05% (v/v) TFA in ACN • Blank solution: 80/20 (v/v) diluent A/diluent B • Purge solvent: 80/20 (v/v) water/ACN • Needle wash: 0.05% (v/v) TFA in 80/20 (v/v) water/ACN
5.00 mg Reserpine reference material was accurately weighed and added into a 50 mL volumetric flask. 40.0 mL of blank solution was added, by means of a volumetric pipette. The solution was stirred for 10 min, by means of a magnetic stirrer, until fully dissolved. The solution was diluted to volume with blank solution and mixed well.
Transfer of 2.0 mL, by means of a volumetric pipette, of stock reference solution 1 into a 20 mL volumetric flask. Diluted to volume with blank solution and homogenized.
This sample preparation was setup for lyophilized products DP-5P and DP-7P in an initially sealed container. Before opening and dissolving the drug product, the vials were equilibrated at room temperature for at least 1 hour. The content of the vial was dissolved with 0.8 mL of diluent B, and stirred for 20 min, using a magnetic stirrer. 3.2 mL of diluent A were added. The solution was stirred well for 20 min, using a magnetic stirrer. After dissolving the content of the vial, the sample vial was kept on the lab bench for 30 minutes. The solution was stirred briefly and transferred into an HPLC vial.
• Column: Advance Bio Peptide Map (2.7 μm, 250 x 2.1 mm) • Sample matrix 0.05%v/v TFA in ACN : water (1:4 v/v) • Sample concentration 100 μg/mL net peptide (of each drug substance), duplicate • Injection volume: 10 μL • Column temperature: 40° C. • Sample temperature: 5° C. • Detection: UV (λ=220 nm) • Flow rate: 0.2 mL/min • Run time: 65 min • Purge solvent: 80/20 (v/v) water/ACN • Needle wash: 0.05% (v/v) TFA in 80/20 water/ACN (v/v) (20 s) • Seal wash: 90/10 (v/v) water/MeOH • Elution mode: Gradient elution • Eluent A: 0.1%v/v TFA in water • Eluent B: 0.1%v/v TFA in ACN/IPA (70:30 v/v)
The RRF was determined for all 12 peptides, enabling the quantification of each peptide against a reserpine as shown above. For the determination, the absorbance of each peptide in a solution comprising said peptide at a known concentration, and of a reference standard solution comprising reserpine at a known concentration, were measured at 220 nm. […]

Sequence | Assay (mg/vial) ([1]; DP-5P batch, T0M) | Label claim (% target 0.40 mg/vial) ([1]; DP-5P batch, T0M) [%] | Assay (mg/vial) ([1]; DP-5P batch, T48M) | Label claim (% target 0.40 mg/vial) ([1]; DP-5P batch, T48M) [%] | Assay (mg/vial) ([1]; DP-5P batch, T54M) | Label claim (% target 0.40 mg/vial) ([1]; DP-5P batch, T54M) [%] | Assay (mg/vial) ([1]; DP-7P batch, T0M) | Label claim (% target 0.40 mg/vial) ([1]; DP-7P batch, T0M) [%] | Assay (mg/vial) ([1]; DP-7P batch, T48M) | Label claim (% target 0.40 mg/vial) ([1]; DP-7P batch, T48M) [%] | Assay (mg/vial) ([1]; DP-7P batch, T54M) | Label claim (% target 0.40 mg/vial) ([1]; DP-7P batch, T54M) [%] | Assay (mg/vial) ([1]; DP-7P batch, T60M) | Label claim (% target 0.40 mg/vial) ([1]; DP-7P batch, T60M) [%] | Assay (mg/vial) ([2]; DP-7P batch, T48M) | Label claim (% target 0.40 mg/vial) ([2]; DP-7P batch, T48M) [%] | Assay (mg/vial) ([2]; DP-7P batch, T54M) | Label claim (% target 0.40 mg/vial) ([2]; DP-7P batch, T54M) [%] | Assay (mg/vial) ([2]; DP-7P batch, T60M) | Label claim (% target 0.40 mg/vial) ([2]; DP-7P batch, T60M) [%] | also measured
DKCLKFYSKISEYRHYCYSLYGTTL (Peptide 1) | 0.4047 | 101 | 0.4107 | 103 | 0.4088 | 102 |  |  |  |  |  |  |  |  |  |  |  |  |  |  | Assay (mg/vial) ([1]; DP-5P batch, T60M): 0.4082 mg/vial; Label claim (% target 0.40 mg/vial) ([1]; DP-5P batch, T60M): 102%; Assay (mg/vial) ([2]; DP-5P batch, T48M): 0.3910 mg/vial; Label claim (% target 0.40 mg/vial) ([2]; DP-5P batch, T48M): 98%; Assay (mg/vial) ([2]; DP-5P batch, T54M): 0.3932 mg/vial; Label claim (% target 0.40 mg/vial) ([2]; DP-5P batch, T54M): 98%; Assay (mg/vial) ([2]; DP-5P batch, T60M): 0.3701 mg/vial; Label claim (% target 0.40 mg/vial) ([2]; DP-5P batch, T60M): 93%
DKKQRFHNIRGRWTGRCMSCCRSSRTRRETQL (Peptide 6) |  |  |  |  |  |  | 0.4315 | 108 | 0.4390 | 110 | 0.4280 | 107 | 0.4286 | 107 | 0.4100 | 103 | 0.4033 | 101 | 0.4010 | 100 | 
HYCYSLYGTTLEQQYNKPLCDLLIR (Peptide 7) |  |  |  |  |  |  | 0.4393 | 107 | 0.4279 | 107 | 0.4219 | 105 | 0.4222 | 106 | 0.4036 | 101 | 0.3980 | 99 | 0.3967 | 99 | 
KQQLLRREVYDFAFRDLCIVYRDGN (Peptide 8) |  |  |  |  |  |  | 0.4357 | 109 | 0.4323 | 108 | 0.4289 | 107 | 0.4294 | 107 | 0.3980 | 99 | 0.3928 | 98 | 0.3900 | 98 | 
LPQLCTELQTTIHDIILECVYCKQQLLRREVY (Peptide 9) |  |  |  |  |  |  | 0.4328 | 108 | 0.4325 | 108 | 0.4262 | 107 | 0.4361 | 109 | 0.3901 | 98 | 0.3718 | 93 | 0.3700 | 93 | 
LYCYEQLNDSSEEEDEIDGPAGQAEPDRAHYNIVT (Peptide 2) | 0.4085 | 102 | 0.4141 | 104 | 0.4149 | 104 |  |  |  |  |  |  |  |  |  |  |  |  |  |  | Assay (mg/vial) ([1]; DP-5P batch, T60M): 0.4174 mg/vial; Label claim (% target 0.40 mg/vial) ([1]; DP-5P batch, T60M): 104%; Assay (mg/vial) ([2]; DP-5P batch, T48M): 0.3950 mg/vial; Label claim (% target 0.40 mg/vial) ([2]; DP-5P batch, T48M): 99%; Assay (mg/vial) ([2]; DP-5P batch, T54M): 0.3932 mg/vial; Label claim (% target 0.40 mg/vial) ([2]; DP-5P batch, T54M): 98%; Assay (mg/vial) ([2]; DP-5P batch, T60M): 0.3880 mg/vial; Label claim (% target 0.40 mg/vial) ([2]; DP-5P batch, T60M): 97%
MHGDTPTLHEYMLDLQPETTDLYCYEQLNDSSEEE [Peptide 3] | 0.3942 | 99 | 0.4311 | 108 | 0.4194 | 105 |  |  |  |  |  |  |  |  |  |  |  |  |  |  | Assay (mg/vial) ([1]; DP-5P batch, T60M): 0.4170 mg/vial; Label claim (% target 0.40 mg/vial) ([1]; DP-5P batch, T60M): 104%; Assay (mg/vial) ([2]; DP-5P batch, T48M): 0.3798 mg/vial; Label claim (% target 0.40 mg/vial) ([2]; DP-5P batch, T48M): 95%; Assay (mg/vial) ([2]; DP-5P batch, T54M): 0.3789 mg/vial; Label claim (% target 0.40 mg/vial) ([2]; DP-5P batch, T54M): 95%; Assay (mg/vial) ([2]; DP-5P batch, T60M): 0.3883 mg/vial; Label claim (% target 0.40 mg/vial) ([2]; DP-5P batch, T60M): 97%
MHQKRTAMFQ QERPRKLPQLCTELQTTIHD (MHQKRTAMFQQERPRKLPQLCTELQTTIHD; Peptide 10) |  |  |  |  |  |  | 0.4212 | 105 | 0.4329 | 108 | 0.4271 | 107 | 0.4362 | 109 | 0.4060 | 101 | 0.3966 | 99 | 0.3945 | 99 | 
